# In US20250215072A1 (published 2025):
# Positions count from the first letter of the chain named.
# B1: Ab22 (antibody, IgG4, V domains shown)
# VH: EVQLVESGGGLVQPGGSLRLSCAASGFTFGSFSMNWVRQAPGKGLEWVSYIHSDASTIYYADSVKGRFTISRDNAKNSLYLQMNSLRAEDTAVYYCARGVLDYGDMLDPWGQGTLVTVSS
# VL: DIQMTQSPSSLSASVGDRVTITCQASQDITNYLNWYQQKPGKAPKLLIYDASNLETGVPSRFSGSGSGTDFTFTISSLQPEDIATYYCQQADNHPPWTFGGGTKVEIK
# B2: Ab32 (antibody, IgG4, V domains shown)
# VH: B1 VH with G30S, H52S, S53P, D54S, S56D, S78T, L101W, Y103M
# VL: B1 VL
# B3: Ab31 (antibody, IgG4, V domains shown)
# VH: B1 VH with G30S, N35D, H52S, S53P, S78T, G99A
# VL: B1 VL
# B4: Ab30 (antibody, IgG4, V domains shown)
# VH: B1 VH with G30S, N35D, H52S, S53P, V100T
# VL: B1 VL
# B5: Ab24 (antibody, IgG4, V domains shown)
# VH: B1 VH with G16R, G30S, S33A, N35Y, H52S, S53P
# VL: B1 VL
# B6: Ab1 (antibody, V domains shown)
# VH: EVQLLESGGGLVQPGGSLRLSCAASGFTFRNYAMSWVRQAPGKGLEWVSSISGSGGATYYADSVKGRFTISRDNSKNTLYLQMNSLRAEDTAVYYCARVSSGHWDFDYWGQGTLVTVSS
# VL: DIQLTQSPSSLSASVGDRVTITCQASQDISNFLNWYQQKPGKAPKLLIYDASNLETGVPSRFSGSGSGTDFTFTISSLQPEDIATYYCQQVFNPPLTFGGGTKVEIK
# B7: Ab5 (antibody, V domains shown)
# VH: B1 VH with G30S, N35D, H52S, S53P
# VL: B1 VL
# B8: Ab25 (antibody, V domains shown)
# VH: B1 VH with N35D, H52S, S53P
# VL: B1 VL
# B9: Ab21 (antibody, V domains shown)
# VH: B1 VH with G30S, N35D, H52S, S53P
# VL: B1 VL
# B10: Ab23 (antibody, V domains shown)
# VH: B1 VH with G30S, H52S, S53P, D54S, S56D, S78T
# VL: B1 VL
# B11: Ab16 (antibody, V domains shown)
# VH: B6 VH with R30S, S50A, G56F, A57T
# VL: DIQLTQSPSSLSASVGDRVTITCRASQSISSYLNWYQQKPGKAPKLLIYAASNLQSGVPSRFSGSGSGTDFTLTISSLQPEDFATYYCQQTYTVPLTFGGGTKVEIK
# B12: Ab10 (antibody, V domains shown)
# VH: B6 VH
# VL: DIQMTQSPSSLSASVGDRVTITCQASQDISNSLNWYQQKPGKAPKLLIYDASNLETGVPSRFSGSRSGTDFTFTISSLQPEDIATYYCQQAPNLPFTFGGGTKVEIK
# B13: Ab9 (antibody, V domains shown)
# VH: B6 VH with E1Q, L5V, L11V, R30S, N31S, Y32F, S35T, S50A, G56A, Y60F
# VL: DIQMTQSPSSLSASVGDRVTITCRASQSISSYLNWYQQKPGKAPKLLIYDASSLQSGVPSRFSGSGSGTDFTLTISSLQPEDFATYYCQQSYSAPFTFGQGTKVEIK
# B14: Ab13 (antibody, V domains shown)
# VH: B6 VH with R30A, N31D, S35T, S50A, G53S, S54F, G55A, G56S, T58I
# VL: B11 VL with L4M, N53S, T91V, T93D, V94P
# B15: Ab36 (antibody, V domains shown)
# VH: B6 VH with F106L
# VL: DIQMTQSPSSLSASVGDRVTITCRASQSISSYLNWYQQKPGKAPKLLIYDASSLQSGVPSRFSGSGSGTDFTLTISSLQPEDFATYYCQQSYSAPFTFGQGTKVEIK
# B16: Ab7 (antibody, V domains shown)
# VH: B6 VH with R30A, N31D, S35T, S50A, S54T, G56A, A57H
# VL: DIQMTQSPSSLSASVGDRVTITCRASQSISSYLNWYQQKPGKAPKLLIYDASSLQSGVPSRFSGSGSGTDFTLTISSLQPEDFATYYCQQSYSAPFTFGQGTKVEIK
# B17: Ab8 (antibody, V domains shown)
# VH: B6 VH with E1Q, L5V, L11V, G16R, R30S, N31D, S35V, S50A, G56F, A57T
# VL: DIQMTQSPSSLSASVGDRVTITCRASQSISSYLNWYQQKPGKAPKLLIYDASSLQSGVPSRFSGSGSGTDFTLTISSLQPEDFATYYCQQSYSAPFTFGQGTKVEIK
# B18: Ab15 (antibody, V domains shown)
# VH: B6 VH with L5V, L11V, G16R, R30S, N31D, S35V, S50A, G56F, A57T
# VL: B11 VL
# B19: Ab14 (antibody, V domains shown)
# VH: B6 VH with R30S, N31A, S35T, S50A, S54T, A57S
# VL: B11 VL with L4M, N53S, T91V, T93D, V94P
# B20: Ab17 (antibody, V domains shown)
# VH: B6 VH with L11V, R30S, N31S, Y32F, S35T, S50A, G56A, Y60F
# VL: B11 VL
# B21: Ab18 (antibody, V domains shown)
# VH: QVQLVESGGGVVQPGRSLRLSCAASGFTFSDYAMVWVRQAPGKGLEWVSAISGSGAATYFADSVKGRFTISRDNSKNTLYLQMNSLRAEDTAVYYCATVSSGHWDFDYWGQGTLVTVSS
# VL: B11 VL
# B22: Ab28 (antibody, V domains shown)
# VH: B1 VH with G30S, N35D, H52S, S53P, A97V
# VL: B1 VL
# B23: Ab27 (antibody, V domains shown)
# VH: B1 VH with G30S, S31F, F32Y, S33A, H52S, S53P
# VL: B1 VL
# Target: T1, human GARP-proTGFβ1 complex (human, UniProt P01137 30-390; Q14392 20-627)
# T1 construct: also called hGARP-proTGFβ1; hGARP
# Assay: MSD-SET, hIgG4
# Method: (§1) MSD-SET assays were performed to measure affinities of the antibodies at equilibrium. Briefly, each test antibody was diluted 3-5 fold and samples were mixed with biotinylated antigen in a 48-well dish. The SET samples were equilibrated for 20-24 hours at room temperature. Meanwhile, a capture plate was coated with IgG (20 nM) and incubated overnight at 4° C. or 30 minutes at room temperature, followed by a blocking step with 5% BSA. After the capture plate was washed three times, SET samples were added and incubated for 150 seconds. The plate was washed once to remove unbound complexes. 250 ng/ml SA-Sulfotag was added then washed 3 times. 2× Read Buffer was added, and signals from the labeled bound complexes were read with the use of QuickPlex™ SQ 120 instrument.
row,Kd,Binder
1,0.027 nM,B1
2,0.015 nM,B2
3,0.019 nM,B3
4,0.022 nM,B4
5,0.019 nM,B5

# Target: T2, human LRRC33-proTGFβ1 complex (human, UniProt P01137 30-390; Q86YC3 19-650)
# T2 construct: also called hLRRC33-proTGFβ1; hLRRC33
# Assay: MSD-SET, hIgG4
# Method: as §1
row,Kd,Binder
1,0.2 nM,B1
2,0.087 nM,B2
3,0.096 nM,B3
4,0.14 nM,B4
5,0.18 nM,B5

# Target: hLRRC33-proTGFβ1 presented on cells (human, UniProt P01137 30-390; Q86YC3 19-692)
# Sequence (P01137 30-390 limits assumed, chain 1 of 2): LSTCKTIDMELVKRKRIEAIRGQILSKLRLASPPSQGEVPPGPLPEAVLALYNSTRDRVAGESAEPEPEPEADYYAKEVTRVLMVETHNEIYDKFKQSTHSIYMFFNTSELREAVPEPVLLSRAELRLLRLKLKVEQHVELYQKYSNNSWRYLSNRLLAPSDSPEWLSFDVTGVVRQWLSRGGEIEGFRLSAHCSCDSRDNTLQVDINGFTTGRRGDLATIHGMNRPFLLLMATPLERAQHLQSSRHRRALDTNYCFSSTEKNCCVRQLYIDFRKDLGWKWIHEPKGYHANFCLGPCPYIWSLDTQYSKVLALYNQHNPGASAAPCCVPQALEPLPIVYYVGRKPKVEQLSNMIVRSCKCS
# Sequence (Q86YC3 19-692 limits assumed, chain 2 of 2): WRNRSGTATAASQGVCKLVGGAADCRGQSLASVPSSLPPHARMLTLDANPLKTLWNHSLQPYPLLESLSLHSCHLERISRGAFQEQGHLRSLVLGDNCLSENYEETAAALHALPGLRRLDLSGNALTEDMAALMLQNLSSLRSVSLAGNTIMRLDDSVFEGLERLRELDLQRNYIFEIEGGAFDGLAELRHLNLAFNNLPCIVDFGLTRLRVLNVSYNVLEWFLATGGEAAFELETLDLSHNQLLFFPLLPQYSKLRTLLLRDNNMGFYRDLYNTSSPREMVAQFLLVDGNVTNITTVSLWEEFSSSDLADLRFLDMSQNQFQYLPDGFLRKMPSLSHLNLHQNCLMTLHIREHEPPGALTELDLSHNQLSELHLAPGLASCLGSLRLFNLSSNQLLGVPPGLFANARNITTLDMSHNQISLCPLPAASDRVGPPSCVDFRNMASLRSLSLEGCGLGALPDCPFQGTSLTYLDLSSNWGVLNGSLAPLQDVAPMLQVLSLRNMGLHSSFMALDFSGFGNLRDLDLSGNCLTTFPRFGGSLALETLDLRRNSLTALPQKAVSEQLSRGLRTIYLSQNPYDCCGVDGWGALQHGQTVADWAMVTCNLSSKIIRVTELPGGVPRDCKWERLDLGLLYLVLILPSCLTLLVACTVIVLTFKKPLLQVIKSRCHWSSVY
# Assay: cell-based or functional assay
row,"IC50, reporter cell assay",Binder
1,5.37 nM,B6
2,0.616 nM,B7
3,0.653 nM,B8
4,0.596 nM,B9
5,0.579 nM,B10

# Target: hLTBP1-proTGFβ1 as produced in the cell-based activation assay (human, UniProt P01137 30-390; Q14766 347-1721)
# Sequence (P01137 30-390 limits assumed, chain 1 of 2): as the sequence (P01137 30-390 limits assumed, chain 1 of 2) above
# Sequence (Q14766 347-1721 limits assumed, chain 2 of 2): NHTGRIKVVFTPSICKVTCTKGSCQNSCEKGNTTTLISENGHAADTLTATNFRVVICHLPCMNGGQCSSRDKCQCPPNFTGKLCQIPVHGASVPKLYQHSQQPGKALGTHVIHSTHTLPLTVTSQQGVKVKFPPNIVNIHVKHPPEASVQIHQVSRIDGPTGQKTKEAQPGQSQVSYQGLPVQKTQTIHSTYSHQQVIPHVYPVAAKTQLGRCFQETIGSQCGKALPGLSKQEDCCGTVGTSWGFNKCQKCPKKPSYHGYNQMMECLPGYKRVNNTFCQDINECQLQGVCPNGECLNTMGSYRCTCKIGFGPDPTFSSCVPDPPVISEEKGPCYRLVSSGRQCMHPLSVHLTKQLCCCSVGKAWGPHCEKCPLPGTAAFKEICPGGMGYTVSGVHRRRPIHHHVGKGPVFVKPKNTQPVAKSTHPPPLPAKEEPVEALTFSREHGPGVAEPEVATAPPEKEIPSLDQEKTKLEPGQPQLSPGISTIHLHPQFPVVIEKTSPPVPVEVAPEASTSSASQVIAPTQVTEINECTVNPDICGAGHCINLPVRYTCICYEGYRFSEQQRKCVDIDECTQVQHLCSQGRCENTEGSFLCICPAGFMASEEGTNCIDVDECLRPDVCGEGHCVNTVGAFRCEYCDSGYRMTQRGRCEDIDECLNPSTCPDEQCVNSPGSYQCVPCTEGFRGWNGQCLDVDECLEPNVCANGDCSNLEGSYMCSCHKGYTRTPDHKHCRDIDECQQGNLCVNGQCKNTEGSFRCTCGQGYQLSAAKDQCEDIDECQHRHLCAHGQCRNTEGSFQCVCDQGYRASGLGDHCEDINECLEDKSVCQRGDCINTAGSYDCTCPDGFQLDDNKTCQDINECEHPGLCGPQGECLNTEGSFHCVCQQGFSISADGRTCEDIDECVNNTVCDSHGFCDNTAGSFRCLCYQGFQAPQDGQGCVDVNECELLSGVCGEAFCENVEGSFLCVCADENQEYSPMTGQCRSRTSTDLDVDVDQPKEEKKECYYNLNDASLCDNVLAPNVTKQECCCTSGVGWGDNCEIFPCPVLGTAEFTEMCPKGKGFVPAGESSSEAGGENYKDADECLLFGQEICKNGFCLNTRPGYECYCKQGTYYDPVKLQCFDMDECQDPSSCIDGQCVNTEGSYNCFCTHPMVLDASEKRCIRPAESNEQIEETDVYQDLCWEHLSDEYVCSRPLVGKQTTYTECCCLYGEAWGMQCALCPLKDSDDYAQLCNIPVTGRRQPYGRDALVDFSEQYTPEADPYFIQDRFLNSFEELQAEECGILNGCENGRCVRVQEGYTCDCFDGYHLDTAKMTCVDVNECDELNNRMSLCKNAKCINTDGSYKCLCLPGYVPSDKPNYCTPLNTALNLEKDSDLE
# Assay: cell-based or functional assay
row,"IC50, reporter cell assay",Binder
1,14.5 nM,B6
2,1.29 nM,B7
3,6.08 nM,B8
4,1.61 nM,B9
5,0.835 nM,B10

# Target: hGARP-proTGFβ1 presented on cells (human, UniProt P01137 30-390; Q14392 20-662)
# Sequence (P01137 30-390 limits assumed, chain 1 of 2): as the sequence (P01137 30-390 limits assumed, chain 1 of 2) above
# Sequence (Q14392 20-662 limits assumed, chain 2 of 2): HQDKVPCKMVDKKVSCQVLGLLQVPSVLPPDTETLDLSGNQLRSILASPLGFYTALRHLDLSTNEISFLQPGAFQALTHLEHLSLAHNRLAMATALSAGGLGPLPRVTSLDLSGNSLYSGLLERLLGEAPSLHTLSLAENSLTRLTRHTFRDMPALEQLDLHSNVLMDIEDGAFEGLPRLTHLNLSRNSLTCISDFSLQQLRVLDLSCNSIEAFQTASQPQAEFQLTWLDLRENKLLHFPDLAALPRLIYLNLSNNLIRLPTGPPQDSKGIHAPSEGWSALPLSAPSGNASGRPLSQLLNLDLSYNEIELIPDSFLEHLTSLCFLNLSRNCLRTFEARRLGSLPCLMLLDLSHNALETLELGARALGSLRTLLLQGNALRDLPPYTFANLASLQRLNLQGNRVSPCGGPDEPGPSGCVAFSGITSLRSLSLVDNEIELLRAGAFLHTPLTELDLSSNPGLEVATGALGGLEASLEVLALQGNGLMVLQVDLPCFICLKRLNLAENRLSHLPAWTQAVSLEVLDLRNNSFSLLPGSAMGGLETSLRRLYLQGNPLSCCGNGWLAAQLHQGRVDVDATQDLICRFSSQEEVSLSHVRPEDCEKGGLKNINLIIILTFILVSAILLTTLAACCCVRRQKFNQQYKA
# Assay: cell-based or functional assay
row,"IC50, reporter cell assay",Binder
1,3.71 nM,B6
2,0.14 nM,B7
3,0.442 nM,B8
4,0.401 nM,B9
5,0.264 nM,B10

# Target: hLTBP3-proTGFβ1 as produced in the cell-based activation assay (human, UniProt P01137 30-390; Q9NS15 44-1303)
# Sequence (P01137 30-390 limits assumed, chain 1 of 2): as the sequence (P01137 30-390 limits assumed, chain 1 of 2) above
# Sequence (Q9NS15 44-1303 limits assumed, chain 2 of 2): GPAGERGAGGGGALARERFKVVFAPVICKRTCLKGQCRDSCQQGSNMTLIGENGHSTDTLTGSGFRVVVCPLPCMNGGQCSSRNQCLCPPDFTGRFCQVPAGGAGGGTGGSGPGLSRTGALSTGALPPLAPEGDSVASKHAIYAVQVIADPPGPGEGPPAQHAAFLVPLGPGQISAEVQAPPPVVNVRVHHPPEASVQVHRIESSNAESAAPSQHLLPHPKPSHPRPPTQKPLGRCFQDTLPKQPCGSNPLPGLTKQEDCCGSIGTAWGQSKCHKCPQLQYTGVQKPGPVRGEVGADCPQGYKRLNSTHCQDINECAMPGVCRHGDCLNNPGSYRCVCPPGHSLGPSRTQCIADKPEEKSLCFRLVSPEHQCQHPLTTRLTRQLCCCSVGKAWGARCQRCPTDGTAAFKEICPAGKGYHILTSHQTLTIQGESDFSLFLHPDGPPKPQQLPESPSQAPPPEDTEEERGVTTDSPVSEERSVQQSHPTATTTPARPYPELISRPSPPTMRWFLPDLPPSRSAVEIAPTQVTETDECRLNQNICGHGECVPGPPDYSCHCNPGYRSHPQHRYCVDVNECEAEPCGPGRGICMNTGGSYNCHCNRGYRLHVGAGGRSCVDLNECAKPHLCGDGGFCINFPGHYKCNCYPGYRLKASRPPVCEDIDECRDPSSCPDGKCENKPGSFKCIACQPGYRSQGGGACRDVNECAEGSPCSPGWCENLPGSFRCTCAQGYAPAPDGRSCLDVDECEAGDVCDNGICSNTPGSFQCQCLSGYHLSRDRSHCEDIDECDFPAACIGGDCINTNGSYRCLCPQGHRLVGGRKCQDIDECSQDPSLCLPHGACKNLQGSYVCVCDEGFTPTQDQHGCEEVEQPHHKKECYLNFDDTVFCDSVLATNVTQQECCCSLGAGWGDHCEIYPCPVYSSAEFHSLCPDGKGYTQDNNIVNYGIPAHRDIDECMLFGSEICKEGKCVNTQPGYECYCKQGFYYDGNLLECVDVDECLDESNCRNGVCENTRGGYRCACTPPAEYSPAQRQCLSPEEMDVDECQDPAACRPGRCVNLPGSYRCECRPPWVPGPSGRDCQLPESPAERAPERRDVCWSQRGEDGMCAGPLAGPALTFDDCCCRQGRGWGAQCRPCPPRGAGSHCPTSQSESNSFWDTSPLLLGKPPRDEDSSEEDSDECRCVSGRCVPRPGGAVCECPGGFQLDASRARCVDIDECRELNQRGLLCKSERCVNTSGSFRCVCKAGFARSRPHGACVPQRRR
# Assay: cell-based or functional assay
row,"IC50, reporter cell assay",Binder
1,2.71 nM,B6
2,1 nM,B7
3,0.538 nM,B8
4,0.765 nM,B9
5,0.879 nM,B10

# Target: T1, human GARP-proTGFβ1 complex
# Assay: BLI (Octet)
# Method: (§2) The affinity of anti-TGFβ1 antibodies was measured by Octet@ assay on human proTGFβ1 cells, while activity was measured by CAGA12 reporter cells testing human proTGFβ1 inhibition.
row,Kd,Binder
1,4.16 nM,B11
2,10.2 nM,B12
3,15.5 nM,B13
4,10 nM,B14
5,12.8 nM,B15
6,18 nM,B16
7,15.4 nM,B17
8,7.01 nM,B18
9,10.5 nM,B19
10,8.62 nM,B20
11,11.5 nM,B21
12,0.488 nM,B8
13,0.974 nM,B1
14,0.496 nM,B2
15,0.797 nM,B22
16,0.833 nM,B9
17,0.424 nM,B23
18,0.581 nM,B3
19,0.833 nM,B4
20,1.34 nM,B10
21,0.665 nM,B5

# Target: T2, human LRRC33-proTGFβ1 complex
# Assay: BLI (Octet)
# Method: as §2
row,Kd,Binder
1,0.631 nM,B11
2,1.06 nM,B12
3,1.3 nM,B13
4,1.4 nM,B14
5,1.42 nM,B15
6,10.3 nM,B16
7,10 nM,B17
8,0.702 nM,B18
9,1.34 nM,B19
10,0.658 nM,B20
11,1.02 nM,B21
12,0.409 nM,B8
13,0.415 nM,B1
14,0.698 nM,B2
15,0.409 nM,B22
16,0.455 nM,B9
17,0.299 nM,B23
18,0.41 nM,B3
19,0.535 nM,B4
20,0.455 nM,B10
21,0.41 nM,B5
